This passage reports average specific interaction force and average interaction force results from paper PMC11921551.

For test [1], the target named is Recombinant human LDL receptor (LDLR) (human) (UniProt P01130). The test is described as follows: AFM force spectroscopy; receptor on the AFM probe tip through PEG (micro-droplet method), lipoprotein immobilised on mica; PBS pH 7.4, 37 °C, loading force 0.5 nN for 2 s, loading speed 200 nm/s; n = 200 interactions.
Test [2] has the same target. The test is described as follows: AFM force spectroscopy; LDLR on the AFM probe through PEG (traditional immersion method), LDL immobilised on mica; PBS pH 7.4, 37 °C; n = 200 interactions.
The target in test [3] is Recombinant human CD36 (human) (UniProt P16671). As to the kind of experiment: AFM force spectroscopy; receptor on the AFM probe tip through PEG (micro-droplet method), lipoprotein immobilised on mica; PBS pH 7.4, 37 °C, loading force 0.5 nN for 2 s, loading speed 200 nm/s; n = 200 interactions.

Recombinant human LDL receptor (LDLR) (human), sequence (P01130 22-788): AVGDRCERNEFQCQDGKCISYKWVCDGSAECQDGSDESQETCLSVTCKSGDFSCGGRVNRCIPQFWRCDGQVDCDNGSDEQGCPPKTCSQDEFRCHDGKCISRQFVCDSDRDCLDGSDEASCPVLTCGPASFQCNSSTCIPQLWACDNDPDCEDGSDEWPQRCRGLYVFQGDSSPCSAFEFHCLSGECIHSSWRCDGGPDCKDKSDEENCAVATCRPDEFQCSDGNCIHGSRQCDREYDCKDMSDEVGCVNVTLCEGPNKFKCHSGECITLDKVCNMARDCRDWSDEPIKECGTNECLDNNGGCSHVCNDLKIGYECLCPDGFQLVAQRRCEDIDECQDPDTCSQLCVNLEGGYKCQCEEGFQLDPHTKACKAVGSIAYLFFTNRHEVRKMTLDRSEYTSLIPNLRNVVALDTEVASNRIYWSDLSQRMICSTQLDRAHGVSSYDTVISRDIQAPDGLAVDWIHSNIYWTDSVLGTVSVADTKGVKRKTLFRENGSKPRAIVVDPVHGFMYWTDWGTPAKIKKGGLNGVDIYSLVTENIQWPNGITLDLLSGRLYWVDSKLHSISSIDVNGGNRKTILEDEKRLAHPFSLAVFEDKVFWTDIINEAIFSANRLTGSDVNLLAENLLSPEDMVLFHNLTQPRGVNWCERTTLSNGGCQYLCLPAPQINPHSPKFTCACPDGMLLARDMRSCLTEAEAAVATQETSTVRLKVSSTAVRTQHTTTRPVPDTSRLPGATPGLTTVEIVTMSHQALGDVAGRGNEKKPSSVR

“Human low-density lipoprotein (LDL), P04114 28-4563”: the average specific interaction force was found to be 231 pN in test [1] and 322 pN in test [2]. Consider “Human oxidized low-density lipoprotein (oxLDL) (from UniProt P04114 28-4563) (complex)”, for which the average interaction force in test [3] is 229 pN.
